Where no end group is shown, it is not given here.
Tests used:
[1] = target: T1, B11.6 Cyclo[biotinyl-PEG-cysEHHPMTPQFEH] (not fully specified; cyclic; biotinyl-PEG on the cysteine); assay: peptide binding ELISA, biotinylated peptide on streptavidin
T1 construct: also called Nav 1.6 E1 peptide
T1 peptide: CEHHPMTPQFEH
Description: (§1) Nunc 96 well plates were coated overnight at 4° C. in 5 ug/ml Streptavidin (Jackson 016-000-114) 100 ul/well in carbonate coating buffer. Plates were washed four times in PBS/tween and 200 ul/well of block (1% BSA in PBS) was added for 1 hour at RT. Plates were washed four times in PBS/tween and 100 ul/well of biotinylated peptide at 5 ug/ml was added for 1 hour at RT. Plates were washed four times in PBS/tween and 100 ul/well of antibody added (starting at 10 ug/ml diluting in block in half logs down the plate) for 1 hour at RT. Plates were washed four times in PBS/tween and […] goat anti rabbit Fc HRP (Jackson 111-036-046) added for 1 hour at RT. Plates were washed four times in PBS/tween and 100 ul/well TMB (3,3′,5,5′ Tetramethylbenzidine) solution added. 50 ul/well of NaF was added to stop reaction and absorbance read at 630 nm.

[2] = target: T2, B11.1 Cyclo[biotinyl-PEG-cysEHYPMTDHFNN] (not fully specified (N-terminus, bridges); printed as Cyclo[biotinyl-PEG-cysEHYPMTDHFNN]; also: biotinyl-PEG on the cysteine); assay: as above
T2 construct: also called Nav 1.1 E1 peptide
T2 peptide: CEHYPMTDHFNN
Description: as §1

[3] = target: T3, B11.5 Cyclo[biotinyl-PEG-cysEHYNMTSEFEE] (not fully specified; cyclic; biotinyl-PEG on the cysteine); assay: as above
T3 construct: also called Nav 1.5 E1 peptide
T3 peptide: CEHYNMTSEFEE
Description: as §1

[4] = target: T4, B11.9 Cyclo[biotinyl-PEG-cysEHHKMEASFEK] (not fully specified; cyclic; biotinyl-PEG on the cysteine); assay: as above
T4 construct: also called Nav 1.9 E1 peptide
T4 peptide: CEHHKMEASFEK
Description: as §1

[5] = target: T5, B11.2/3 Cyclo[biotinyl-PEG-cysEHYPMTEQFSS] (not fully specified (N-terminus, bridges); printed as Cyclo[biotinyl-PEG-cysEHYPMTEQFSS]; also: biotinyl-PEG on the cysteine); assay: as above
T5 construct: also called Nav 1.2 and 1.3 E1 peptide
T5 peptide: CEHYPMTEQFSS
Description: as §1

[6] = target: T6, B11.8 Cyclo[biotinyl-PEG-cysEHHGMSPTFEA] (not fully specified; cyclic; biotinyl-PEG on the cysteine); assay: as above
T6 construct: also called Nav 1.8 E1 peptide
T6 peptide: CEHHGMSPTFEA
Description: as §1

[7] = target: T7, B11.4 Cyclo[biotinyl-PEG-cysEHYPMTEHFDN] (not fully specified (N-terminus, bridges); printed as Cyclo[biotinyl-PEG-cysEHYPMTEHFDN]; also: biotinyl-PEG on the cysteine); assay: as above
T7 construct: also called Nav 1.4 E1 peptide
T7 peptide: CEHYPMTEHFDN
Description: as §1

[8] = target: T8, B11-CPMTEEFKN (cyclic) (human, also: biotinylated in screening assay, position not given here); assay: peptide specificity; bead-based FMAT screen on biotinylated peptide
T8 construct: Human Nav1.7 peptide; also called Nav1.7 peptide B11
T8 peptide: cyclo(CPMTEEFKN)
Description: (§2) SLAM was performed using substantially the methods described in Tickle et al. 2009 (JALA, Vol. 14, number 5, p303-307). Briefly, SLAM cultures were set up using rabbit splenocytes or PBMC and supernatants were first screened for their ability to bind biotinylated peptide in a bead-based assay in the FMAT. […] Positives from this screen were then put through a negative screen to identify non-specific antibodies.

[9] = target: human Nav1.7 channel (type IX voltage-gated sodium channel alpha subunit) (human, UniProt Q15858 1-1988); assay: cell-based or functional assay
[10] = target: T9, B11.7 Cyclo[biotinyl-PEG-cysPMTEEFKN] (not fully specified; cyclic; biotinyl-PEG on the cysteine); assay: peptide binding ELISA (FIG. 3K legend)
T9 construct: also called B11.7 peptide; Nav 1.7 peptide
T9 peptide: CPMTEEFKN
Description: as §1

[11] = target: T9, B11.7 Cyclo[biotinyl-PEG-cysPMTEEFKN]; assay: peptide binding ELISA (FIG. 3J legend)
Description: as §1

[12] = target: T10, A32-CTLESIMNTLESEEDFRKY (cyclic) (human, also: biotinylated in screening assay, position not given here); assay: peptide specificity; bead-based FMAT screen on biotinylated peptide
T10 construct: Human Nav1.7 peptide; also called Nav1.7 peptide A32
T10 peptide: cyclo(CTLESIMNTLESEEDFRKY)
Description: as §2

Binder	binding result [1]	binding result [2]	binding result [3]	binding result [4]	binding result [5]	binding result [6]	binding result [7]	binding result [8]	Nav1.7 inhibition (%) at 25 µg/ml, automated patch clamp, HEK cells [9] [%]	binding result [10]	binding result [11]	binding result [12]
CA167_01080 (antibody, rabbit IgG1, V domains shown, Rabbit monoclonal from rabbit 3824) VH: QSLEESGGRLVTPETPLTLTCTASGIDLSKWPMTWVRQAPGKGLEWIGIIGRSGSTNYASWAKGRFTISKTSTTVDLKMTSPTTEDTATYFCARGGSYYDLWGQGTLVTVS VL: AQVLTQTASPVSAAVGNTVTITCQSSQSVWKNNDLSWYQQKLGQPPKLLIYYASTLASGVSSRFKASGSGTQFTLTISDVQCDDAGTYYCVGSYDCSSADCNAFGGGTKVVVK	no binding (tested: antibody starting at 10 ug/ml)	no binding (tested: antibody starting at 10 ug/ml)	no binding (tested: antibody starting at 10 ug/ml)	no binding (tested: antibody starting at 10 ug/ml)	no binding (tested: antibody starting at 10 ug/ml)	no binding (tested: antibody starting at 10 ug/ml)	no binding (tested: antibody starting at 10 ug/ml)	binds	46	binds		
CA167_00983 (antibody, rabbit IgG1, V domains shown, Rabbit monoclonal from rabbit 3824) VH: QSVEESGGRLVTPGTPLTLTCTVSGFSLSNYAMSWVRQAPGKGLEWIGIIGKSGSTAYASWAKGRFTISRTSTTVDLEITSPTTEDTATYFCVRFVLLWGPGTLVTVS VL: AQVLTQTASPVSAAVGGTVTINCQSSQSVYKNNDLAWYQQKPGQPPKLLIYYASTLASGVSSRFKGSGSGTEFTLTISDAQCDDAATYYCLGSYDCSSADCNAFGGGTKVVVK	no binding (tested: antibody starting at 10 ug/ml)	no binding (tested: antibody starting at 10 ug/ml)	no binding (tested: antibody starting at 10 ug/ml)	no binding (tested: antibody starting at 10 ug/ml)	no binding (tested: antibody starting at 10 ug/ml)	no binding (tested: antibody starting at 10 ug/ml)	no binding (tested: antibody starting at 10 ug/ml)	binds	41		binds	
CA167_00932 (antibody, rabbit IgG1, V domains shown, Rabbit monoclonal from rabbit 3822; also called antibody 932) VH: QSLEESGGRLVTPGTPLTLTCTVSGFSLSRYWMSWVRQAPGKGLEWIGNIGGGSGSTLYAPWAKGRSTISKTSTTVDLKITSPTTEDTATYFCGRYVKNGGGYRLDLWGPGTLVTVS VL: AAVLTQTPSSVSAAVGGTVTIKCQSSQSVYNNNEFSWYQQKPGQPPKLLIYDASKLASGVPSRFSGSGSGTQFTLTISGVQCDDVATYYCLGGYNDDTNRWAFGGGTEVVVE									27			binds

From patent US20110135662A1 (UCB, published 2011)
